Laboratory results from US11998613B2, “Antibody-drug conjugates containing an anti-mesothelin antibody and uses thereof” (DEVELOPMENT CENTER FOR BIOTECHNOLOGY, priority 2020, dated 2024).

B1: DCBPR2002: humanized anti-mesothelin antibody, heavy chain variable region SEQ ID NO: 11, light chain variable region SEQ ID NO: 12 (antibody, V domains shown)
VH: QVQLVQSGAEVKKPGASVKVSCKASGYSFTGYTMNWVRQAPGQGLEWMGLITPYNGASSYNQKFRGRVTMTRDTSISTAYMELSRLRSDDTAVYYCARGGYDGRGFDYWGQGTLVTVSS
VL: EIVLTQSPATLSLSPGERATLSCSASSSVSYMHWYQQKPGQAPRLLIYDTSKLASGIPARFSGSGSGTDFTLTISSLEPEDFAVYYCQQWSKHPLTFGQGTKVEIKR
modifications: Artificial antibody
B2: DCBPR2002-2(DBCO-vc-MMAE)-2(DBCO-vc-seco-DUBA): dual-payload ADC: DCBPR2002-2(DBCO-vc-MMAE)-2Az reacted with DBCO-vc-seco DUBA; DAR ~4 (conjugate)
VH: B1 VH
VL: B1 VL
B3: DCBPR2002-4(DBCO-vc-seco-DUBA): DCBPR2002-4Az reacted with DBCO-vc-seco DUBA; ADC, DAR ~4 (conjugate)
VH: B1 VH
VL: B1 VL

Experiments:
[1] = tested on: KLM-1 human pancreatic cancer xenograft; assay: KLM-1 xenograft model (Example 44); type: in vivo; conditions: 30 mg/kg IV once weekly for 3 weeks
Experimental: Each of the formulations was administered intravenously (IV) to the mice once weekly for three weeks.
(§1) Five mice were housed in each cage.
When the average tumor volume had reached 200 mm^3, the mice were randomLy divided into 4 groups (N=6 per group). Each of the vehicle, DCBPR2002-4(DBCO-vc-MMAE) (15 and 30 mg/kg), and naked antibody (DCBPR2002, 30 mg/kg) was intravenously administered once weekly for 3 weeks.
(§2) Differences are considered significant at *P<0.05.

[2] = molecular target: T1, mesothelin protein (Homo sapiens, UniProt Q13421); assay: Affinity measurements and kinetic analysis using BIAcore (SPR), mesothelin immobilised; type: binding
Experimental: To know the biding kinetics difference among individual antibodies, surface plasmon resonance (SPR) measurement with a BIAcore T200 (Cytiva Inc.) was used as previously described (Karlsson & Falt, (1997) J. Immunol Methods 200:121-133). Carboxymethylated dextran biosensor chips (CM5, Cytiva Inc.) were activated with N-ethyl-N′-(3-dimethylaminopropyl)-carbodiimide hydrochloride (EDC) and N-hydroxysuccinimide (NHS) according to the supplier's instructions. Mesothelin protein was diluted with 10 mM sodium acetate, pH 4.0, into 5 μg/ml before injection at a flow rate of 10 μL/minute to achieve approximately 1500 response units (RU) of coupled protein followed by the injection of 1M ethanolamine to block unreacted groups. For kinetics measurements, two-fold serial dilutions of anti-mesothelin mAb (0.3125 nM to 40 nM) were injected in HBS-EP+ Biacore running buffer provided by the manufacturer (Cytiva Inc.) at 25 degree C. at a flow rate of 30 μL/min, and binding responses on the mesothelin protein were corrected by subtraction of responses on a blank flow cell. Association rates (kon or ka) and dissociation rates (koff or kd) were calculated using a simple one-to-one Langmuir binding model with separate fittings of kon and koff was used. (Cytiva.™. Biacore Insight Evaluation Software).

[3] = molecular target: T1, mesothelin protein; assay: Binding kinetics of anti-mesothelin ADCs by surface plasma resonance (Biacore T100); conditions: analyte MSLN; for Ka: antibody/ADC captured on CM5 chip via anti-human IgG-Fc; for dissociation rate constant (koff): antibody/ADC captured on CM5 chip
Experimental: The kinetic constant of the anti-mesothelin ADCs interaction against mesothelin was determined by surface plasma resonance (Biacore® T100, Biacore, Inc., Piscataway, NJ). The flow cell of the CM5 wafer was fixed with approximately 10,000 reaction units (RU) of anti-human IgG-Fc (Biacore®) in 10 mM glycine pH 5.0 at 10 μL/min for 600 seconds. 10 μg/mL of anti-mesothelin antibody and anti-mesothelin ADCs diluted in TBS at 10 μl/min were captured on CM5 chips. Four concentrations (from 3.7 to 100 nM) of human mesothelin recombinant protein and zero concentration (flow buffer) in 100 μl/min binding were recorded in PBS containing 1 mM CaCl2 for 3 minutes. The dissociation of the complex was measured for 10 minutes. The water surface was regenerated by injecting 3 M MgCl2 and 3 mM EGTA at 10 μl/min for 60 seconds. The curve obtained after subtracting the reference and buffer signals was taken into the 1:1 Langmuir binding model using the Biacore® T100 evaluation software (Biacore®).

[4] = tested on: Ovarian carcinoma cell line OVCAR-3 (MSLN+); assay: In vitro cytotoxicity, CellTiter-Glo luminescent cell viability assay, OVCAR-3; type: cell-based, human; conditions: OVCAR-3, 72 hours treatment; read-out: Relative IC50 (nM of toxic payload/ADCs)
Experimental: (§3) The KLM-1 & OVCAR-3 cell lines were maintained in an atmosphere of 5% CO2 in a humidified 37° C. incubator. The day before treatment, cells were collected and seeded into 96-well plates (4,000 cells per well). On the second day, cells were treated with 3-fold serial dilution concentration of toxic payloads and ADCs. Each treatment was performed in eight triplicate data points. After the treatment of 72 hours, cell viability was assessed by CellTiter-Glo® kit (Promega) according to the manufacturer's instruction. At the end of the incubation, luminescence was measured using a SpectraMax i3x Multi Mode Detection Platform (Molecular Devices). Compound cytotoxicity was evaluated in comparison to cells treated with 0.05% PBS (ADCs) or 0.05% DMSO (toxic payload). IC50 values were calculated by fitting viability data with a four-parameter logistic equation using GraphPad prism 5.0 software.

[5] = tested on: Pancreatic cancer cell line KLM-1 (MSLN+); assay: In vitro cytotoxicity, CellTiter-Glo luminescent cell viability assay, KLM-1; type: cell-based, human; conditions: KLM-1, 72 hours treatment; read-out: Relative IC50 (nM of toxic payload/ADCs)
Experimental: as §3, with “Pancreatic cancer cell line KLM-1 was respectively grown in RPMI 1640 Medium (ATCC modification) medium supplemented with 10% fetal bovine serum. Ovarian carcinoma cell line OVCAR-3 was grown in RPMI 1640 Medium (ATCC modification) medium supplemented with 20% fetal bovine serum. The KLM-1” for “The KLM-1”

[6] = tested on: KLM-1 human pancreatic cancer xenograft; assay: KLM-1 xenograft model (Example 45); conditions: 15 mg/kg IV once weekly for 3 weeks
Experimental: Formulations respectively comprising test article DCBPR2002-4(DBCO-vc-MMAE)(15 mg/kg), test article DCBPR2002-4(DBCO-vc-seco-DUBA)(15 mg/kg), test article DCBPR2002-4(DBCO-s-DM1) (15 mg/kg), test article DCBPR2002-2(DBCO-vc-MMAE)-2(DBCO-vc-seco-DUBA) (15 mg/kg), test article DCBPR2002-2(DBCO-vc-MMAE)-2(DBCO-s-DM1) (15 mg/kg), test article DCBPR2002-2(DBCO-vc-seco-DUBA)-2(DBCO-s-DM1) (15 mg/kg), and a corresponding vehicle were formulated by diluting the stock with a 25 mM sodium citrate buffer (pH6.5). Each of the formulations was administered intravenously (IV) once weekly for three weeks.
The KLM-1 cells were maintained in vitro as a monolayer culture in RPMI-1640 medium supplemented with 10% fetal bovine serum at 37° C. in an atmosphere of 5% CO2 in air. The tumor cells were routinely sub-cultured twice weekly by trypsin-EDTA treatment. The cells growing in an exponential growth phase were harvested and counted for tumor inoculation.
Male NOD SCID mice at age of 6-7 weeks were purchased from BioLasco Taiwan Co., LTD. and quarantined for one week. Five mice were housed in each cage. All animals were hosted in the animal facility with a 12-h light/12-h dark cycle at 19-25° C. Animals had free access to rodent pellet foods and water ad libitum.
KLM-1 cells were subcutaneously (SC) implanted (4×10^6 cells in 1:1 PBS/matrigel mixture at 0.1 mL per mouse) into the right flank of male NOD SCID mice. When the average tumor volume had reached 300 mm^3, the mice were randomly divided into 7 groups (N=6 per group). Each of the vehicle, DCBPR2002-4(DBCO-vc-MMAE), DCBPR2002-4(DBCO-vc-seco-DUBA), DCBPR2002-4(DBCO-s-DM1), DCBPR2002-2(DBCO-vc-MMAE)-2(DBCO-vc-seco-DUBA), DCBPR2002-2(DBCO-vc-MMAE)-2(DBCO-s-DM1), DCBPR2002-2(DBCO-vc-seco-DUBA)-2(DBCO-s-DM1) was intravenously administered as 15 mg/kg once weekly for 3 weeks.
The tumor volumes, body weights, mortality, and signs of overt toxicity were monitored and recorded three times weekly for 28 days. Tumor volumes were measured three times per week using calipers and calculated according to the formula: Tumor Volume=(w2×l)/2, where w=width and l=length in diameter (mm) of the tumor. […] One-way ANOVA followed by Dunnett's test was applied for comparison between the vehicle and test article-treated groups. Differences are considered significant at *P<0.05. Animals were weighed three times weekly until the completion of the study.

[7] = tested on: OVCAR-3 human ovarian cancer xenograft; assay: OVCAR-3 xenograft model (Example 46); type: in vivo, female NOD SCID mice; conditions: 15 mg/kg IV once weekly for 3 weeks
Experimental: as §1
OVCAR-3 cells were subcutaneously (SC) implanted (1×10^7 cells in 1:1 PBS/matrigel mixture at 0.2 mL per mouse) into the right flank of female NOD SCID mice. […] Each of the vehicle, DCBPR2002-4(DBCO-vc-MMAE) (15 and 30 mg/kg), and DCBPR2002-4(DBCO-vc-seco-DUBA) (15 mg/kg) was intravenously administered once weekly for 3 weeks.
as §2

T1 sequence (Q13421 with tags, fused parts or gaps): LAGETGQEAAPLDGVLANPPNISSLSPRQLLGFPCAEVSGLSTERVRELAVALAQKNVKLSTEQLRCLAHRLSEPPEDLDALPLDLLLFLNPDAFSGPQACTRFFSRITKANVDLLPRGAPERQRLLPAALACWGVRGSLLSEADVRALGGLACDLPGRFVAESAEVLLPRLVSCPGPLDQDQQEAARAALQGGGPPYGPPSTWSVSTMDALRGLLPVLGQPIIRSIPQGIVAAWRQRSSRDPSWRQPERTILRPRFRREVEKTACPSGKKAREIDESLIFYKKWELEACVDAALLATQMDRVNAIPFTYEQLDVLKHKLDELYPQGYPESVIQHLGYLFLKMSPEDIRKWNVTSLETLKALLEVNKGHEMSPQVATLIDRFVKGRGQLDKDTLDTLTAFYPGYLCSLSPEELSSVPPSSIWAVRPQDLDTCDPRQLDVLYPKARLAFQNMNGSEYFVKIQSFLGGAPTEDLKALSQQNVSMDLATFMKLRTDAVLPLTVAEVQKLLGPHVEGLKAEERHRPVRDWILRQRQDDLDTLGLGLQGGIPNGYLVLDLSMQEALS

Row | Molecule | body weight changes [1] | tumor growth / anti-tumor activity ([1]; TGI≥58% considered significant) | Rmax(RU) ([2]; BIAcore T200) | ka ([2]; BIAcore T200, 25 degree C, 1:1 Langmuir model) [M⁻¹ s⁻¹] | kd ([2]; BIAcore T200, 25 degree C, 1:1 Langmuir model, listed as HuSS1) [s⁻¹] | kd ([2]; BIAcore T200, 25 degree C, 1:1 Langmuir model, listed as HuSS1mAb) [s⁻¹] | Rmax(RU) [3] [RU] | Ka [3] | dissociation rate constant (koff) [3] | IC50 [4] [nM] | IC50 [5] [nM] | body weight changes [6] | ranking of efficacy potency [6] | body weight changes [7]
1 | B1 | No body weight loss was observed | did not show significant anti-tumor activity | 180.6 | 4.493e+06 | 1.124e-05 | 1.124e-05 | 58.1 | 5.091E+6 | 8.593E−5 |  |  |  |  | 
2 | B2 |  |  |  |  |  |  | 50.98 | 4.752E+6 | 1.218E−4 | 43.3 | 46 | No body weight loss was observed | DCBPR2002-4(DBCO-vc-seco-DUBA)=DCBPR2002-2(DBCO-vc-MMAE)-2(DBCO-vc-seco-DUBA)=DCBPR2002-2(DBCO-vc-seco-DUBA)-2(DBCO-s-DM1)>DCBPR2002-4(DBCO-vc-MMAE)>DCBPR2002-2(DBCO-vc-MMAE)-2(DBCO-s-DM1)>DCBPR2002-4(DBCO-s-DM1) | 
3 | B3 |  |  |  |  |  |  |  |  |  | 23.9 | 19.4 | No body weight loss was observed | DCBPR2002-4(DBCO-vc-seco-DUBA)=DCBPR2002-2(DBCO-vc-MMAE)-2(DBCO-vc-seco-DUBA)=DCBPR2002-2(DBCO-vc-seco-DUBA)-2(DBCO-s-DM1)>DCBPR2002-4(DBCO-vc-MMAE)>DCBPR2002-2(DBCO-vc-MMAE)-2(DBCO-s-DM1)>DCBPR2002-4(DBCO-s-DM1) | No body weight loss was observed
